Molecular target: BRCA1 (UniProt P38398)
Assay: anti-GFP co-IP from nuclear extract, blot
Details: reference: wild type GFP-CtIP; sites S327

Substance: CtIP (from UniProt Q99708) S327A
- binding against the reference: lost

— PMC7162537
